Experimental data taken from patent publication US20240400708A1.
Numbering of substitutions follows the chain as printed. Numbers in names are those of the source. Each block holds one molecule with its values, some of them ahead of it.

Key:
[1] = target: feline FcRn complex (FcRn-α subunit and β-microglobulin) (feline); test: SPR (Biacore), FcRn on SA chip, pH 6
[2] = target: feline FcRn complex (FcRn-α subunit and β-microglobulin) (feline); test: SPR (Biacore), FcRn on SA chip, pH 7.4
[3] = target: feline FcRn complex (FcRn-α subunit and β-microglobulin), biotin labeled (feline); test: SPR, pH 7.4
[4] = target: feline FcRn complex (FcRn-α subunit and β-microglobulin), biotin labeled (feline); test: SPR, pH 6

Kd [1]: 5.45 nM | Kd [2]: 5910 nM
Molecule: feline IgG1a mutant ID No. 278: S252R, S434H, Q311W (antibody)

Kd [1]: 13.2 nM | Kd [2]: 66.5 nM
Molecule: feline IgG1a mutant ID No. 260: S252Y, S254T, T256E (antibody)

Kd [1]: 0.322 nM | Kd [2]: 26.1 nM
Molecule: feline IgG1a mutant ID No. 366: S252Y, S434R, E430I (antibody)

Kd [1]: 0.296 nM | Kd [2]: 28.9 nM
Molecule: feline IgG1a mutant ID No. 365: S252Y, S434R, E430I (antibody)

Kd [1]: 0.748 nM | Kd [2]: 28.3 nM
Molecule: feline IgG1a mutant ID No. 358: S252Y, S434R, A431K (antibody)

Kd [1]: 0.769 nM | Kd [2]: 25.9 nM
Molecule: feline IgG1a mutant ID No. 357: S252Y, S434R, A431K (antibody)

Kd [3]: 46.8 nM | Kd [4]: 5.33 nM
B1: feline IgG1a D399M (antibody, part only; not given: Variable domains, not shown: another chain or arm of the molecule)
constant: ASTTAPSVFPLAPSCGTTSGATVALACLVLGYFPEPVTVSWNSGALTSGVHTFPAVLQASGLYSLSSMVTVPSSRWLSDTFTCNVAHPPSNTKVDKTVRKTDHPPGPKPCDCPKCPPPEMLGGPSIFIFPPKPKDTLSISRTPEVTCLVVDLGPDDSDVQITWFVDNTQVYTAKTSPREEQFNSTYRVVSVLPILHQDWLKGKEFKCKVNSKSLPSPIERTISKAKGQPHEPQVYVLPPAQEELSRNKVSVTCLIKSFHPPDIAVEWEITGQPEPENNYRTTPPQLMSDGTYFVYSKLSVDRSHWQRGNTYTCSVSHEALHSHHTQKSLTQSPGK

Kd [3]: 67.2 nM | Kd [4]: 4.56 nM
B2: feline IgG1a Q311R (antibody, part only; not given: Variable domains, not shown: another chain or arm of the molecule)
constant: B1 constant with Q197R, M287D

Kd [1]: 5.7 nM | Kd [2]: 23.7 nM
B3: feline IgG1a mutant ID No. 248: S428M, D312P (antibody, part only; not given: Variable domains, not shown: another chain or arm of the molecule)
constant: B1 constant with D198P, M287D, S316M

Kd [3]: 2880 nM | Kd [4]: 8.29 nM
B4: feline IgG1a D399V (antibody, part only; not given: Variable domains, not shown: another chain or arm of the molecule)
constant: B1 constant with M287V

Kd [1]: 14.3 nM | Kd [2]: 10700 nM
B5: feline IgG1a mutant ID No. 268: S252F, S434H, Q311W (antibody, part only; not given: Variable domains, not shown: another chain or arm of the molecule)
constant: B1 constant with S138F, Q197W, M287D, S322H

Kd [2]: 6.68 nM
B6: feline IgG1a mutant ID No. 353: S252Y, S428M, S434F, S254V (antibody, part only; not given: Variable domains, not shown: another chain or arm of the molecule)
constant: B1 constant with S138Y, S140V, M287D, S316M, S322F

Kd [3]: 93.7 nM | Kd [4]: 5.84 nM
B7: feline IgG1a Q311H (antibody, part only; not given: Variable domains, not shown: another chain or arm of the molecule)
constant: B1 constant with Q197H, M287D

Kd [3]: 28.9 nM | Kd [4]: 6.91 nM
B8: feline IgG1a S252Y/S428M/S434L (antibody, part only; not given: Variable domains, not shown: another chain or arm of the molecule)
constant: B1 constant with S138Y, M287D, S316M, S322L

Kd [1]: 5.83 nM | Kd [2]: 20.3 nM
B9: feline IgG1a mutant ID No. 251: S428M, Q311Y (antibody, part only; not given: Variable domains, not shown: another chain or arm of the molecule)
constant: B1 constant with Q197Y, M287D, S316M

Kd [3]: 54.5 nM | Kd [4]: 9.12 nM
B10: feline IgG1a L309G (antibody, part only; not given: Variable domains, not shown: another chain or arm of the molecule)
constant: B1 constant with L195G, M287D

Kd [3]: 4530 nM | Kd [4]: 6.81 nM
B11: feline IgG1a L309I (antibody, part only; not given: variable domains, not shown: another chain or arm of the molecule)
constant: B1 constant with L195I, M287D

Kd [3]: 21 nM | Kd [4]: 0.745 nM
B12: feline IgG1a S434F (antibody, part only; not given: Variable domains, not shown: another chain or arm of the molecule)
constant: B1 constant with M287D, S322F

Kd [1]: 2.8 nM | Kd [2]: 388 nM
B13: feline IgG1a mutant ID No. 266: Q311W, L314K, S434Y (antibody, part only; not given: Variable domains, not shown: another chain or arm of the molecule)
constant: B1 constant with Q197W, L200K, M287D, S322Y

Kd [3]: 5100 nM | Kd [4]: 4.97 nM
B14: feline IgG1a Q311M (antibody, part only; not given: Variable domains, not shown: another chain or arm of the molecule)
constant: B1 constant with Q197M, M287D

Kd [3]: 44.4 nM | Kd [4]: 4.86 nM
B15: feline IgG1a S252Y/S428M/S434P (antibody, part only; not given: Variable domains, not shown: another chain or arm of the molecule)
constant: B1 constant with S138Y, M287D, S316M, S322P

Kd [3]: 9940 nM | Kd [4]: 9.96 nM
B16: feline IgG1a Y404Q (antibody, part only; not given: Variable domains, not shown: another chain or arm of the molecule)
constant: B1 constant with M287D, Y292Q

Kd [2]: 1300 nM
B17: feline IgG1a mutant ID No. 323: S428Y, D312P, S434Y, D399M, D401R, T403R (antibody, part only; not given: Variable domains, not shown: another chain or arm of the molecule)
constant: B1 constant with D198P, D289R, T291R, S316Y, S322Y

Kd [1]: 0.264 nM | Kd [2]: 21.9 nM
B18: feline IgG1a mutant ID No. 257: S428M, S434Y (antibody, part only; not given: Variable domains, not shown: another chain or arm of the molecule)
constant: B1 constant with M287D, S316M, S322Y

Kd [3]: 1200 nM | Kd [4]: 6.1 nM
B19: feline IgG1a G402R (antibody, part only; not given: Variable domains, not shown: another chain or arm of the molecule)
constant: B1 constant with M287D, G290R

Kd [3]: 1750 nM | Kd [4]: 4.85 nM
B20: feline IgG1a Q311K (antibody, part only; not given: Variable domains, not shown: another chain or arm of the molecule)
constant: B1 constant with Q197K, M287D

Kd [1]: 0.0406 nM | Kd [2]: 7.91 nM
B21: feline IgG1a mutant ID No. 246: S252Y, S428M, S434W (antibody, part only; not given: Variable domains, not shown: another chain or arm of the molecule)
constant: B1 constant with S138Y, M287D, S316M, S322W

Kd [1]: 5.56 nM | Kd [2]: 33.2 nM
B22: feline IgG1a mutant ID No. 250: S428M, Q311W (antibody, part only; not given: Variable domains, not shown: another chain or arm of the molecule)
constant: B1 constant with Q197W, M287D, S316M

Kd [2]: 4.89 nM
B23: feline IgG1a mutant ID No. 350: S252Y, S428M, S434F, Q311M (antibody, part only; not given: Variable domains, not shown: another chain or arm of the molecule)
constant: B1 constant with S138Y, Q197M, M287D, S316M, S322F

Kd [1]: 0.19 nM | Kd [2]: 27.4 nM
B24: feline IgG1a mutant ID No. 252: S428M, S434F (antibody, part only; not given: variable domains and light chain, not shown: another chain or arm of the molecule)
constant: B1 constant with M287D, S316M, S322F

Kd [1]: 4.15 nM | Kd [2]: 4030 nM
B25: feline IgG1a mutant ID No. 267: S252F, S434F, Q311W (antibody, part only; not given: Variable domains, not shown: another chain or arm of the molecule)
constant: B1 constant with S138F, Q197W, M287D, S322F

Kd [1]: 0.193 nM | Kd [2]: 31.6 nM
B26: feline IgG1a mutant ID No. 256: S428M, S434W (antibody, part only; not given: variable domains and light chain, not shown: another chain or arm of the molecule)
constant: B1 constant with M287D, S316M, S322W

Kd [1]: 0.0902 nM | Kd [2]: 7.65 nM
B27: feline IgG1a mutant ID No. 247: S252Y, S428M, S434Y (antibody, part only; not given: Variable domains, not shown: another chain or arm of the molecule)
constant: B1 constant with S138Y, M287D, S316M, S322Y

Kd [1]: 10.6 nM | Kd [2]: 8.83 nM
B28: feline IgG1a mutant ID No. 254: S428M, S434N (antibody, part only; not given: Variable domains, not shown: another chain or arm of the molecule)
constant: B1 constant with M287D, S316M, S322N

Kd [1]: 0.978 nM | Kd [2]: 19300 nM
B29: feline IgG1a mutant ID No. 249: S428M, L314K (antibody, part only; not given: variable domains and light chain, not shown: another chain or arm of the molecule; small tags and cut ends)
constant: B1 constant with L200K, M287D, S316M

Kd [3]: 1370 nM | Kd [4]: 8.85 nM
B30: feline IgG1a Q311F (antibody, part only; not given: Variable domains, not shown: another chain or arm of the molecule)
constant: B1 constant with Q197F, M287D

Kd [3]: 77.1 nM | Kd [4]: 7 nM
B31: feline IgG1a Q311I (antibody, part only; not given: Variable domains, not shown: another chain or arm of the molecule)
constant: B1 constant with Q197I, M287D
